Assays:
[1] = molecular target: HEK293-hLAG3 and HEK293-mfLAG3 cells; assay: cell binding assay of Table 12, LAG3-expressing HEK293 cells against parental HEK293 cells
[2] = molecular target: cynomolgus LAG3 on activated CD4+ and CD8+ cynomolgus T cells (cynomolgus); assay: FACS, stimulated cynomolgus CD4+ T cells, donor 1

Substance	ratio of binding above the HEK293 parental cells [1]	Ratio of MFI (11 nM/0 nM) [2]
H4H isotype control and the H4sH isotype control	0.7 to 1.1 fold	
hIgG4 isotype control (antibody)		1

Source: US20170101472A1
